Test [1] addresses T1, HLA-DR1 (DR1) (Homo sapiens, UniProt P01903+P01911, A100R/D57E/F55L/F60I/F76Y/I96L/L162R/M171V/P40L/Q125E/R42F/V115G/Y59C). Put plainly: Fluorescent peptide association to soluble DR1 (spin-column separation, fluorescence read-out). The test is classed as binding.
For test [2], the target named is T1, HLA-DR1 (DR1). Put plainly: Dissociation of fluorescent peptide/DR1 complexes. The test is classed as binding. Conditions: for DM sensitivity of DR1/peptide complex (dissociation in the presence of DM): 10 hours.
Test [3] concerns Mags.DO5 monoclonal antibody. Put plainly: SPR binding to immobilized Mags.DO5 antibody surface. The procedure: Purified DM/DO complexes were further evaluated by binding to anti-HA and anti-His antibody immobilized chip surfaces using BIAcore Surface Plasmon Resonance (SPR) instrument (Fig. 1C and D). […] To ensure that the observed binding was due to binding of DM/DO to Mags.DO5 mAb, we preincubated DM/DO complexes with soluble Mags.DO5 prior to injecting it over Mags.DO5 immobilized surface.
Background: SPR reads the build-up and loss of mass on a sensor chip optically.

The subject of a further test is HLA-DO (DO). Put plainly: SPR binding to DO captured on anti-His antibody surface. Details: species or system human. Conditions: soluble DM 4 µM injected over DO captured by anti-His antibody; pH 5.5, 27°C.
For test [4], the target named is soluble HLA-DR1 (human).
For test [5], the target named is recombinant soluble HLA-DO (human) (UniProt P06340). Put plainly: SPR; DO (Ni-NTA purified) captured on anti-His antibody CM5 chip; analyte 4 µM; citrate-phosphate pH 5.5, 150 mM NaCl, 0.005% Tween-20; 27°C, 5–10 µL/min.
Test [6] has as its target co-expressed DM/DO complex (human) (UniProt P06340). Put plainly: SPR.
In test [7] the target is soluble HLA-DR1 (human). Put plainly: fluorescent peptide association kinetics (Sephadex G-50 spin column, fluorescence); as a1 with 1 µM DM added.
Test [8] deals with soluble HLA-DR1 (human). Put plainly: fluorescent peptide association kinetics (Sephadex G-50 spin column, fluorescence); as a1 with 4 µM DO added.
For test [9], the target named is soluble HLA-DR1 (human). Put plainly: fluorescent peptide association kinetics (Sephadex G-50 spin column, fluorescence); as a1 with 1 µM DM and 4 µM DO added.
The target of test [10] is soluble HLA-DR1 (human). Put plainly: fluorescent peptide association kinetics (Sephadex G-50 spin column, fluorescence); DR1 or DR1βG86Y 1 µM with fluorescent peptide 30 µM, no accessory molecules; 37°C, citrate-phosphate buffer pH 5.0; up to 10 h; unbound peptide removed on G-50 spin columns.
The test system of another test is HLA-DM (DM). Conditions: DO solution 5 µM over DM captured by anti-FLAG antibody; pH 5.5, 27°C.

We go through ten molecules from PMC3738515, “HLA-DO as the Optimizer of Epitope Selection for MHC Class II Antigen Presentation” (PLoS ONE, 2013).

Where two headings read alike, the source gives them in different places. No end group written: not given here.

As to “CAGFKGEQGPKGEP [CII(259–273), derived from Type II Collagen peptide used to induce arthritis in mice models]”, on HLA-DR1 (DR1) [1] (DR1 1 µM, fluorescent peptide 30 µM, 37°C, Citrate-Phosphate buffer pH 5.0, slope of linear fit of early data points (~1 hour), no accessory molecules), the “Observed initial binding rate, DR1 alone” value was 500 Arbitrary Fluorescence Units min^−1. The “Observed initial binding rate, + DM and DO” value at HLA-DR1 (DR1) [1] (DR1 1 µM, peptide 30 µM, DM 1 µM and DO 4 µM, 37°C, pH 5.0, initial rate over 1 hour) is recorded as 1002 Arbitrary Fluorescence Units min^−1. The “Observed initial binding rate, + DM” value on HLA-DR1 (DR1) [1] (DR1 1 µM, peptide 30 µM, DM 1 µM, 37°C, pH 5.0, initial rate over 1 hour) is on record as 1593 Arbitrary Fluorescence Units min^−1. At HLA-DR1 (DR1) [1] (DR1 1 µM, peptide 30 µM, DO 4 µM, 37°C, pH 5.0, initial rate over 1 hour), the “Observed initial binding rate, + DO” value is 137 Arbitrary Fluorescence Units min^−1. The “Effect of DO on peptide binding to peptide-receptive DR1 (DR-receptive)” value at HLA-DR1 (DR1) [1] (DR1 pre-incubated with unlabeled HA(anchorless) for three days, no DM) was “reduced”. For the same molecule, the “Effect of DO (or DM+DO) on dissociation of peptide from DR1” value at HLA-DR1 (DR1) [2] (DO 4 µM, with or without DM 1 µM, 10 hour kinetic experiment, pH 5.0, 37°C) was “no effect”. In addition, the “DM sensitivity of DR1/peptide complex (dissociation in the presence of DM)” value on HLA-DR1 (DR1) [2] (complexes formed over 3 days at 37°C, DM 1 µM, competing HA(306–318) 50 µM, pH 5.0, 37°C) is listed as “DM-sensitivity”.

Consider “DM/DO: co-expressed soluble DM/DO complex purified by Ni-NTA or Mags.DO5”, for which the “SPR binding to Mags.DO5 mAb immobilized surface after preincubation with soluble Mags.DO5” value in test [3] (DM/DO preincubated with soluble Mags.DO5 prior to injection) is “about 100 RU”. In addition, the “SPR binding to Mags.DO5 mAb immobilized surface” value in test [3] (Ni-NTA purified DM/DO complexes, pH 5.5 running buffer, 27°C) is listed as “approximately 600 RU”.

For “DM: soluble HLA-DM purified on M2 FLAG affinity column”, in the test on HLA-DO (DO), the “SPR binding of DM to captured DO” value was 490 RU.

In the test with soluble HLA-DR1 (human) [4], H5N1-HA1(259–274) peptide displayed an observed initial binding rate (+ DM and DO) (Arbitrary Fluorescence Units min^-1) of 2200; an observed initial binding rate (+ DM) (Arbitrary Fluorescence Units min^-1) of 665; an observed initial binding rate (+ DO) (Arbitrary Fluorescence Units min^-1) of 257.

Regarding HA(306–318) peptide, in the test with soluble HLA-DR1 (human) [4], the observed initial binding rate (+ DM and DO) (Arbitrary Fluorescence Units min^-1) came to 1780; the observed initial binding rate (+ DM) (Arbitrary Fluorescence Units min^-1) came to 463; the observed initial binding rate (+ DO) (Arbitrary Fluorescence Units min^-1) was determined as 523.

For the molecule “HA(306–318): derived from Texas 77 flu strain HA protein peptide; immunodominant HLA-DR1 binding peptide (CPKYVKQNTLKLAT)”, in the test with HLA-DR1 (DR1) [1], the “Effect of DO on peptide binding to peptide-receptive DR1 (DR-receptive)” value is “enhanced” and the “Enhancement of initial binding rate by DO compared to DR1 alone” value was 3–4 folds. In addition, in the test with HLA-DR1 (DR1) [1] (pH 5), the “Effect of DO on maximum binding of peptide to DR1” value is “increasing the binding maxima”; the “Observed initial binding rate, + DM” value is recorded as 463 Arbitrary Fluorescence Units min^−1; the “Observed initial binding rate, + DM and DO” value is 1779 Arbitrary Fluorescence Units min^−1; the “Observed initial binding rate, + DO” value is recorded as 523 Arbitrary Fluorescence Units min^−1. Further, in the test with HLA-DR1 (DR1) [1] (pH 5), the “Observed initial binding rate, DR1 alone” value is 132 Arbitrary Fluorescence Units min^−1. Moreover, the “Effect of DO (or DM+DO) on dissociation of peptide from DR1” value with HLA-DR1 (DR1) [2] (pH 5) is “did not affect”. Moreover, the “DM sensitivity of DR1/peptide complex (dissociation in the presence of DM)” value in the test with HLA-DR1 (DR1) [2] (pH 5.0, 37°C) is listed as “DM-resistant”.

As to “mutant DR1, DR1βG86Y (from UniProt P01903 26-216) (receptor)”, in [5], the response at 4 µM came to 100 RU.

Molecule “soluble HLA-DR1 (from UniProt P01903 26-216) (receptor)” returned an SPR binding response in test [6] of 337 RU.

B1: CII(259–273) peptide (peptide)
peptide: fluorescein-CAGFKGEQGPKGEP
B1: in the test with soluble HLA-DR1 (human) [7], the observed initial binding rate (+ DM) (Arbitrary Fluorescence Units min^-1) came to 1590. Also, the observed initial binding rate (+ DO) (Arbitrary Fluorescence Units min^-1) with soluble HLA-DR1 (human) [8] came out at 137. The same molecule displayed an observed initial binding rate (+ DM and DO) (Arbitrary Fluorescence Units min^-1) with soluble HLA-DR1 (human) [9] of 1000. In addition, the observed initial binding rate (Arbitrary Fluorescence Units min^-1) in the test with soluble HLA-DR1 (human) [10] turned out to be 500.

B2: DO: recombinant soluble HLA-DO heterodimer with leucine zipper, His- and HA-tags, expressed in Hi5 insect cells (protein)
chain 1: TKADHMGSYGPAFYQSYGASGQFTHEFDEEQLFSVDLKKSEAVWRLPEFGDFARFDPQGGLAGIAAIKAHLDILVERSNRSRAINVPPRVTVLPKSRVELGQPNILICIVDNIFPPVINITWLRNGQTVTEGVAQTSFYSQPDHLFRKFHYLPFVPSAEDVYDCQVEHWGLDAPLLRHWELQVPIPPPDAME
chain 2: TDSPEDFVIQAKADCYFTNGTEKVQFVVRFIFNLEEYVRFDSDVGMFVALTKLGQPDAEQWNSRLDLLERSRQAVDGVCRHNYRLGAPFTVGRKVQPEVTVYPERTPLLHQHNLLHCSVTGFYPGDIKIKWFLNGQEERAGVMSTGPIRNGDWTFQTVVMLEMTPELGHVYTCLVDHSSLLSPVSVEWRAQSEYSWRK
modifications: left off: leucine zipper (acidic or basic chain, which not stated; flanked by spacers), C-terminal, state not stated | His tag, C-terminal, kept | leucine zipper (acidic or basic chain, which not stat
B2: the “SPR maximum binding of DO to immobilized DM” value in the test with HLA-DM (DM) stood at 500 RU.
